US20150322160A1 (Bayer, published 2015)
Where a chain is given by its changes, count along the chain named.

B1: MF-J-SPDP-DM4 (antibody, V domains shown)
VH: QVELVQSGAEVKKPGESLKISCKGSGYSFTNYWIGWVRQMPGKGLEWMGVIMPSDSYTRYSPSFQGQVTISADKSISTAYLQWSSLKASDTAMYYCARYGHGMYGGALDVWGQGTLVTVSS
VL: DIVLTQSPATLSLSPGERATLSCRASQSVRSSRLAWYQQKPGQAPRLLIYGASKRATGVPARFSGSGSGTDFTLTISSLEPEDFATYYCQQYYDFPPTFGQGTKVEIKR
modifications: DM4 maytansinoid conjugated via SPDB (printed SPDP in Table 2) linker; DM4/Ab 2.8; attachment residues not stated
B2: MOR06640-SPDP-DM4 (antibody, V domains shown)
VH: B1 VH with E3Q
VL: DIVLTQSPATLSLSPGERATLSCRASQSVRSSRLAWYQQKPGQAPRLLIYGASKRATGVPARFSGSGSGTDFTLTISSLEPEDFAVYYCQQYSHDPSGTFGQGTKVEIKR
modifications: DM4 maytansinoid conjugated via SPDB (printed SPDP in Table 2) linker; DM4/Ab 3.6; attachment residues not stated
B3: MF-T-SPDP-DM4 (antibody)
VH: QVELVQSGAEVKKPGESLKISCKGSGYSFTSYWIGWVRQAPGKGLEWMGIIDPGDSRTRYSPSFQGQVTISADKSISTAYLQWSSLKASDTAMYYCARGQLYGGTYMDGWGQGTLVTVSS
VL: DIALTQPASVSGSPGQSITISCTGTSSDIGGYNSVSWYQQHPGKAPKLMIYGVNNRPSGVSNRFSGSKSGNTASLTISGLQAEDEADYYCSSYDIESATPVFGGGTKLTVLGQDIVLTQPPSVSGAPGQRVTISCSGSSSNIGSNYVSWYQQLPGTAPKLLIYNDNQRPSGVPDRFSGSKSGTSASLAITGLQSEDEADYYCSTYDRRTFSVFGGGTKLTVLGQ
modifications: DM4 maytansinoid conjugated via SPDB (printed SPDP in Table 2) linker; DM4/Ab 3.6; attachment residues not stated
B4: MF-226-SPDP-DM4 (antibody, V domains shown)
VH: QVELVQSGAEVKKPGASVKVSCKASGYTFTGNYINWVRQAPGQGLEWMGIINPHGGDTKYAQKFQGRVTMTRDTSISTAYMELSSLRSEDTAVYYCARWHHGTWIFDYWGQGTLVTVSS
VL: DIVLTQPPSVSGAPGQRVTISCSGSSSNIGSNYVSWYQQLPGTAPKLLIYNDNQRPSGVPDRFSGSKSGTSASLAITGLQSEDEADYYCSTYDRRTFSVFGGGTKLTVLG
modifications: DM4 maytansinoid conjugated via SPDB (printed SPDP in Table 2) linker; DM4/Ab 3.3; attachment residues not stated
B5: MF-J Fab (Fab, V domains shown)
VH: B1 VH
VL: B1 VL
notes: Tested as Fab ('KD of Fab'); the Fab constant domains are not
B6: MOR 06640 Fab (Fab, V domains shown)
VH: B1 VH with E3Q
VL: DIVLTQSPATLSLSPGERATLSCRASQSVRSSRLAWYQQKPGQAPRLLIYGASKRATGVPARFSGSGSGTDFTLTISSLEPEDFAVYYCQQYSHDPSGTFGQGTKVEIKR
notes: Tested as Fab ('KD of Fab'); the Fab constant domains are not; also called MOR6640
B7: MF-T Fab (Fab, V domains shown)
VH: B3 VH
VL: DIALTQPASVSGSPGQSITISCTGTSSDIGGYNSVSWYQQHPGKAPKLMIYGVNNRPSGVSNRFSGSKSGNTASLTISGLQAEDEADYYCSSYDIESATPVFGGGTKLTVLG
notes: as for B5
B8: MF-226 Fab (Fab, V domains shown)
VH: B4 VH
VL: B4 VL
notes: as for B5

These binders were tested against mesothelin expressed on cells (transfected MiaPaCa-2, HT29 C2, CHO A9; endogenous HelaMatu, OVCAR-3) (Homo sapiens (Human), UniProt Q13421 296-598) (assay: cell-based or functional assay).
mesothelin expressed on cells (transfected MiaPaCa-2, HT29 C2, CHO A9; endogenous HelaMatu, OVCAR-3), sequence (Q13421 other isoform, or with tags, fused parts or gaps limits assumed): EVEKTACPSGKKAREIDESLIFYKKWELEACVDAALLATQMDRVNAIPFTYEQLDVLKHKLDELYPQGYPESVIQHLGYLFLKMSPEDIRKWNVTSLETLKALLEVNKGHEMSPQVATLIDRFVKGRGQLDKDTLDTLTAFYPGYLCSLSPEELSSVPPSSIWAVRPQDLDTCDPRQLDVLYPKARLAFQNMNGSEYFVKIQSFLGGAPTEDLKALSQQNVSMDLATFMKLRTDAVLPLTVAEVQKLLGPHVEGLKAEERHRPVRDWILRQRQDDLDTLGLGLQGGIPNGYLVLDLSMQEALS

Going from B1 to B2, the “IC50 (nM), cell viability (WST-1), CHO A9* (Mesothelin+)” value rises from 0.35 nM to 1.2 nM (3.4-fold).

B3 and B4 are within 1.5-fold of each other in “IC50 (nM), cell viability (WST-1), CHO A9* (Mesothelin+)” value: 1 nM for the first, 1.3 nM for the second.

B1 and B2 are within 1.5-fold of each other in “IC50 (nM), cell viability (WST-1), HT29 C2 (Mesothelin+)” value: 0.3 nM for the first, 0.21 nM for the second.

Compared with B3, B4 is 5.3-fold higher in “IC50 (nM), cell viability (WST-1), HT29 C2 (Mesothelin+)” value: 1.5 nM for the first, 8 nM for the second.

Going from B1 to B2, the “IC50 (nM), cell viability (WST-1), HelaMatu” value rises from 0.2 nM to 0.6 nM (3-fold).

Going from B3 to B4, the “IC50 (nM), cell viability (WST-1), HelaMatu” value rises from 0.45 nM to 0.9 nM (2-fold).

Compared with B1, B2 is 3.9-fold lower in “IC50 (nM), cell viability (WST-1), MiaPaCa-2 (Mesothelin+)” value: 1.4 nM for the first, 0.36 nM for the second.

Compared with B3, B4 is 16-fold higher in “IC50 (nM), cell viability (WST-1), MiaPaCa-2 (Mesothelin+)” value: 1.3 nM for the first, 21 nM for the second.

B1 and B2 are within 1.5-fold of each other in “IC50 (nM), cell viability (WST-1), OVCAR-3” value: 0.9 nM for the first, 1.07 nM for the second.

First: B3
Second: B4
The “IC50 (nM), cell viability (WST-1), OVCAR-3” value of the first is 5.3-fold lower: 2.8 nM for the first, 14.8 nM for the second.

What follows are binders tested against T1, mesothelin (40 kDa, C-terminal domain of the mesothelin precursor polypeptide) (Homo sapiens (Human), UniProt Q13421 296-598) (assay: KD of Fab; method not stated).
T1 construct: Antigen of the Fab KD values
T1 sequence (Q13421 other isoform, or with tags, fused parts or gaps limits assumed): as above

Compared with B5, B6 is 48-fold lower in Kd: 9.2 nM for the first, 0.19 nM for the second. The second binds more tightly here.

Compared with B7, B8 is 3.6-fold higher in Kd: 16.3 nM for the first, 58.3 nM for the second.
